The values that follow come from US20230331827A1, “POTASSIUM CHANNEL INHIBITORS” (priority 2017, published 2023).

Numbering of substitutions follows the chain as printed. Names may count otherwise.

In experiment [1] the target is human Kv1.3 (human) (UniProt P22001). Put plainly: cell-based or functional assay.
A further experiment deals with β-galactosidase. Nature of the experiment: phage TRF on β-galactosidase.
The target of experiment [2] is trypsin. Put plainly: TRF, 10 ug/mL Fab on trypsin.
Experiment [3] deals with trypsin. Put plainly: TRF, 0.6 ug/mL Fab on trypsin.
For experiment [4], the target named is trypsin. Put plainly: TRF, 2.4 ug/mL Fab on trypsin.
The next experiment concerns the target human Kv1.1 (human) (UniProt Q09470). Put plainly: cell-based or functional assay.
In experiment [5] the target is human Kv1.3 (human) (UniProt P22001). Put plainly: cell-based or functional assay. The source holds these as a separate data set.

Sequence of β-galactosidase (P00722 2-1024): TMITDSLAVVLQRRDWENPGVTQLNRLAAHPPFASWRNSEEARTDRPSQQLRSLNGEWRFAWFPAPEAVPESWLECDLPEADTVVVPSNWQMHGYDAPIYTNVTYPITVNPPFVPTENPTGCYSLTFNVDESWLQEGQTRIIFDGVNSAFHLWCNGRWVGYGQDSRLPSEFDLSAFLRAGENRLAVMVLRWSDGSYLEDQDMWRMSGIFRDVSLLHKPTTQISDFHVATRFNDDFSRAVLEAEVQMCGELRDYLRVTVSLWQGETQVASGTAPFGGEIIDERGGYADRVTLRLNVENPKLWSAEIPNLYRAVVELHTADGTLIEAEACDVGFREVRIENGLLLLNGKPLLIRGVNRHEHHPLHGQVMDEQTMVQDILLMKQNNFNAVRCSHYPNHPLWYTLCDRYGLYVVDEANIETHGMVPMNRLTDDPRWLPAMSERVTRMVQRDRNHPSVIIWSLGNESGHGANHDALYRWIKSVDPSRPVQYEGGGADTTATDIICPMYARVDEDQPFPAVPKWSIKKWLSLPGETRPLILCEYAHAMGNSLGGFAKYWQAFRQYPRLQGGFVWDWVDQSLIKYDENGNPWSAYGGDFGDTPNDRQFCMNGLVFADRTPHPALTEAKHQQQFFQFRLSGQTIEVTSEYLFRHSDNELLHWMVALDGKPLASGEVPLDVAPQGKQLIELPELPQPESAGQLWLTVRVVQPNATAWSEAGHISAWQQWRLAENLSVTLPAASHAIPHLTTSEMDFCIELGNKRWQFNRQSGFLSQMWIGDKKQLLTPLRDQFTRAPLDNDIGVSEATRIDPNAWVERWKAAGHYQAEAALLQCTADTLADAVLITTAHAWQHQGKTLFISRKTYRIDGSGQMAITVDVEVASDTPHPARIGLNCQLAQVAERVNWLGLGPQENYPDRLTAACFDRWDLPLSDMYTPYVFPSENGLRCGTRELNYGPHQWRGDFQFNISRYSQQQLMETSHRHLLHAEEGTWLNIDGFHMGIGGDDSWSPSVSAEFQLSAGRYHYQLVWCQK
Sequence of human Kv1.3 (human) (P22001 whole entry): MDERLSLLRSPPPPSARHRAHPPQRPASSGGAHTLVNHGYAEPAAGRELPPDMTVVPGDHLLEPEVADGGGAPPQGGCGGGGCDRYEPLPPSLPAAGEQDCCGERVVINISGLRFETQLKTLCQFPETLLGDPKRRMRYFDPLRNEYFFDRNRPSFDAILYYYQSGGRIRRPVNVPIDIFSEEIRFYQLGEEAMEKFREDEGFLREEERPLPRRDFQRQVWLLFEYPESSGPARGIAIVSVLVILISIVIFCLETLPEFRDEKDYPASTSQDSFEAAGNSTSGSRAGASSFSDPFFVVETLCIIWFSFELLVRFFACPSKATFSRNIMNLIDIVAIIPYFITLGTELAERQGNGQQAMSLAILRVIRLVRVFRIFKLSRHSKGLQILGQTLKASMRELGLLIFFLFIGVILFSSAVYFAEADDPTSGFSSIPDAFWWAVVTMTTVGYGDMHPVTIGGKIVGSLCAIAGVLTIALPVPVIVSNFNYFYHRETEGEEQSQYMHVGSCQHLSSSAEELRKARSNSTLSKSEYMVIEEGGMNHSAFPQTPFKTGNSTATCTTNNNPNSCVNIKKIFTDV
Sequence of human Kv1.1 (human) (Q09470 whole entry): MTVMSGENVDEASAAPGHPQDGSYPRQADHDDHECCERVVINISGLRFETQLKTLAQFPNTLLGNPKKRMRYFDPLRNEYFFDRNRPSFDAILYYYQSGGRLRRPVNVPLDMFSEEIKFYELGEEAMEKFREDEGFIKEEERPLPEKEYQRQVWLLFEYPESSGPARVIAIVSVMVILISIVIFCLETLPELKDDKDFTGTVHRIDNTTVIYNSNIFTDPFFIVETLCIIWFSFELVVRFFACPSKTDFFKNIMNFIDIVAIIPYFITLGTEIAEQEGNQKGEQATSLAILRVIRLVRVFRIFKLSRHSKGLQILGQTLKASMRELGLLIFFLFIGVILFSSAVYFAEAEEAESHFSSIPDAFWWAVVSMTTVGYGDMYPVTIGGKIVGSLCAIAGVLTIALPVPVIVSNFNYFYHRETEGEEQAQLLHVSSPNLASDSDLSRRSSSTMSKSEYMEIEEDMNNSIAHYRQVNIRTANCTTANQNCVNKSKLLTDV

B1: KB_A07_HsTx1 (antibody, V domains shown)
VH: EVQLVESGGGLVRPGGSLRLSCAASGFTFSSYAMSWVRQAPGKGLEWVSAISGSGGSTYYADSVKGRFTISRDNTKNSLYLQMTSLRADDTAFYYCVKDFGPGYGTGWFDYWGPGTLVTVSS
VL: NWYQQKPGKAPKLLIYAAGVASCRTPKDCADPCRKETGCPYGKCMNRKCKCNRCSRSGVPSRFSGSGSGTDFTLTISSLQPEDFATYYCQQGASPPYTFGQGTKVEIKR
As for B1, in the experiment with human Kv1.3 (human) [1], the IC50, huKv1.3 current, QPatch patch clamp worked out at 4.7 nM.

B2: KB_A12_B-gal_G05 (scFv, V domains shown)
VH: B1 VH
VL: AVNWYQQLPGKAPKLLIYAAGRCLDTVNLRRRCKQDSDCLAGCVCGPNGFCGANSGVSDRFSAAKSGTSASLAINGLRSEDEADYYCAAWDDSLNGYVFGTGTKLTVLG
In the experiment with β-galactosidase, B2 came in with a TRF signal of 529000.

B3: KB_A12_B-gal_E04 (scFv, V domains shown)
VH: B1 VH
VL: B2 VL with D25A, V27T, N28S, L29I, R32P
On to B3, for which the TRF signal in the experiment with β-galactosidase turned out to be 523000.

B4: KB_C08 Fab (Fab, V domains shown)
VH: B1 VH
VL: AVNWYQQLPGKAPKLLIYAAAVCPRILMRCKQDSDCLAGCVCGPNGFCGTRSGIPERFSGSKSGTSAFLAISGLRSEDEADYYCAAWDDSLSGVVFGGGTKLTVLG
Take B4: the TRF signal in the experiment with trypsin [2] was 183000; with trypsin [3], 51100; with trypsin [4], 131000.

B5: KB_A12_B-gal_H03 (scFv, V domains shown)
VH: B1 VH
VL: B2 VL with L24N, D25Q, V27M, N28S, L29I, R32P
On to B5, for which the TRF signal with β-galactosidase was 518000.

B6: KB_A12_B-gal_F07 (scFv, V domains shown)
VH: B1 VH
VL: B2 VL with L24R, D25T, V27A, L29V, R32H
B6 had a TRF signal with β-galactosidase of 246000.

B7: KB_A12_ADWX1 (antibody, V domains shown)
VH: B1 VH
VL: QSVLTQPPSVSEAPRQRVTITCSGSSSNIGNNAVNWYQQLPGKAPKLLIYAAGRVGINVKCKHSRQCLKPCKDAGMRFGKCTNGKCHCTPKANSGVSDRFSAAKSGTSASLAINGLRSEDEADYYCAAWDDSLNGYVFGTGTKLTVLG
In the case of B7, the IC50, huKv1.3 current, QPatch patch clamp with human Kv1.3 (human) [1] stood at 270 nM.

B8: KB_A12_B-gal_F09 (scFv, V domains shown)
VH: B1 VH
VL: B2 VL with L24I, D25A, V27S, N28H, L29I, R32H
B8 came in with a TRF signal with β-galactosidase of 258000.

B9: KB_A12_HsTx1 R14A (antibody, V domains shown)
VH: B1 VH
VL: NWYQQLPGKAPKLLIYAAGRASCRTPKDCADPCAKETGCPYGKCMNRKCKCNRCANSGVSDRFSAAKSGTSASLAINGLRSEDEADYYCAAWDDSLNGYVFGTGTKLTVLG
For B9, the Kv1.1 IC50, QPatch patch clamp with human Kv1.1 (human) was determined as 2990 nM. Further, in the experiment with human Kv1.3 (human) [5], the Fold difference (Kv1.1 IC50 against Kv1.3 IC50) was over 3500 fold and the Kv1.3 IC50, QPatch patch clamp came out at 0.9 nM.

B10: KB_C07 Fab (Fab, V domains shown)
VH: B1 VH
VL: AVNWYQQLPGKAPKLLIYAAVGCPRILMRCKQDSDCLAGCVCGPNGFCGSASGVSDRFSGSKSGTSASLAISGLRSEDEADYYCASWDDSLRGYVFGTGTKVTVLG
With B10, the TRF signal with trypsin [2] was found to be 276000; with trypsin [3], 153000; in the experiment with trypsin [4] it was 247000.

B11: KB_A12_B-gal_F03 (scFv, V domains shown)
VH: B1 VH
VL: B2 VL with D25A, V27T, N28S, L29I, R32H
In the experiment with β-galactosidase, B11 had a TRF signal of 289000.

B12: KB_A12_B-gal_F11 (scFv, V domains shown)
VH: B1 VH
VL: B2 VL with L24H, D25E, V27A, N28Q, L29I
In the experiment with β-galactosidase, B12 displayed a TRF signal of 531000.

B13: KB_A12_B-gal_E05 (scFv, V domains shown)
VH: B1 VH
VL: B2 VL with L24R, D25E, V27S, N28S, R32P
For the molecule B13, the TRF signal with β-galactosidase turned out to be 312000.

B14: KB_C09 Fab (Fab, V domains shown)
VH: B1 VH
VL: AVNWYQQLPGKAPKLLIYAAGRCPRILMRCKQDSDCLAGCVCGPNGFCGGGSGVPDRFSGSIDSSSNSASLTISGLRAEDEADYYCQSYDSSNHWVFGGGTKLTVLG
As to B14, the TRF signal with trypsin [2] is 289000; with trypsin [3], 46800; with trypsin [4] it was 205000.

B15: KB_A12_B-gal_F02 (scFv, V domains shown)
VH: B1 VH
VL: B2 VL with L24R, D25T, V27S, N28T, L29I
In the experiment with β-galactosidase, B15 showed a TRF signal of 476000.

B16: KB_C10 Fab (Fab, V domains shown)
VH: B1 VH
VL: AVNWYQQLPGKAPKLLIYAAGPCPRILMRCKQDSDCLAGCVCGPNGFCGADSGVSDRFSGSKSGTSASLAITGLQAEDEGDYYCAAWDDSLNGLVFGGGTKVTVLG
Turning to B16, the values for the TRF signal in the experiment with trypsin [2], with trypsin [3] and with trypsin [4] were 238000, 41700 and 146000, respectively.

B17: KB_B01 Fab (Fab, V domains shown)
VH: B1 VH
VL: B10 VL with V21A, S50T, A51R, S86A, G93A, V102L
In the case of B17, the TRF signal with trypsin [2] came to 257000; in the experiment with trypsin [3], 54800; with trypsin [4] it was 153000.

B18: KB_B02 Fab (Fab, V domains shown)
VH: B1 VH
VL: AVNWYQQLPGKAPKLLIYAAVGCPRILMRCKQDSDCLAGCVCGPNGFCGTGSGIPERFSGSKSGNTASLTISGLQAEDEGDYYCAAWDDSLSGPVFGGGTKLTVLG
In the case of B18, the values for the TRF signal in the experiment with trypsin [2], with trypsin [3] and in the experiment with trypsin [4] were 56600, 2340 and 15900, respectively.

B19: KB_A12_B-gal_H02 (scFv, V domains shown)
VH: B1 VH
VL: B2 VL with L24E, D25Q, V27S, N28V, L29I, R32H
For the molecule B19, the TRF signal in the experiment with β-galactosidase was determined as 501000.

B20: KB_A12_B-gal_H07 (scFv, V domains shown)
VH: B1 VH
VL: B2 VL with L24T, D25Q, V27A, N28L, L29I
In the experiment with β-galactosidase, B20 gave a TRF signal of 62000.

B21: KB_A12 Fab (Fab, V domains shown)
VH: EVQLVESGGGLVRPGGSLRLSCAASGFTFSSYAMSWVRQAPGKGLEWVSAISGSGGSTYYADSVKGRFTISRDNTKNSLYLQMTSLRADDTAFYYCVDFGPGYGTGWFDYWGPGTLVTVSS
VL: B10 VL with V21G, G22R, S50A, A51N, G60A, S61A, S72N, S86A, R92N, V102L
As to B21, the TRF signal came to 253000 with trypsin [2], 102000 with trypsin [3] and 222000 with trypsin [4].
